According to article PMC3105389:
Read-outs that look alike come from different tables or passages of the source.

Columns and labels:
[1] = target: T1, MobMN199 (MobM relaxase domain) (Streptococcus plasmid pMV158 (plasmid …, UniProt P13925 1-199)); assay: EMSA
T1 sequence: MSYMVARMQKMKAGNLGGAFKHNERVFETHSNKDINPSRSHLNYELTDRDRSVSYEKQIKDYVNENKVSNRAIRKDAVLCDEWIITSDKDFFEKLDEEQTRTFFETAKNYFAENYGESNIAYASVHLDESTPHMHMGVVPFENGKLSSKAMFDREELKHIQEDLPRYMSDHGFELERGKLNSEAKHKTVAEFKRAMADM

[2] = target: T1, MobMN199 (MobM relaxase domain); assay: competition
[3] = target: T1, MobMN199 (MobM relaxase domain); assay: competition; remark: listed apart in the source
[4] = target: T1, MobMN199 (MobM relaxase domain); assay: competition; remark: listed apart in the source

## GCACACACTTTATGAATATAAAGTATAGTGTG (ssDNA) [IR3 32-mer]
[1]
  Kd: 0.06 ± 0.007 µM

## GCACACACTTTATGAATATAAAGTATAGTGTGTTATACTTTA (ssDNA) [ORIT 42-mer]
[1]
  Kd: 0.058 ± 0.006 µM

## GAATATAAAGT (ssDNA) [IR1-R 11-mer]
[2]
  binding result: no binding

## TAAAGTATAGTGTGTTATACTTTA (ssDNA) [IR2 24-mer]
[2]
  binding result: no binding

## ACTTTATGAATATAAAGTATAGTGTG (ssDNA) [IR1+8 26-mer]
[3]
  binding result: binds

## ACTTTATGAATATAAAGT (ssDNA) [IR1 18-mer]
[4]
  binding result: no binding

## GTATAGTGTG (ssDNA) [10-NIC 10-mer]
[4]
  binding result: no binding

## GCACACACTTTATGA (ssDNA) [IR3-L 15-mer]
[2]
  binding result: no binding
